Results: the supplement of paper PMC9170038

System: K4 kissing-loop RNA reporter
Assay: apparent KD of K4 kissing-loop reporter; higher = weaker reporter binding
Details: Eterna round: R107
Protocol: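 RNA-MaP round R107: designed RNA switches with theophylline, tryptophan, arginine or FMN aptamers are transcribed on-chip within common flanks. They are titrated with a labelled K4 kissing-loop RNA reporter in RNA-MaP buffer (100 mM Tris pH 7.5, 80 mM KCl, 4 mM MgCl2), without ligand or with the indicated ligand. Median apparent KD per design.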

[1] = input ligand: theophylline 20 uM
[2] = input ligand: tryptophan 2.4 mM
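Also: bound reporter read as fluorescence of individual clusters on recovered sequencing chips by microscopy, with normalized cluster intensities fitted with a binding model.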

Row | Sequence | apparent KD of K4 kissing-loop reporter (input ligand: FMN 200 uM) | apparent KD of K4 kissing-loop reporter (input ligand: arginine 13.2 mM) | apparent KD of K4 kissing-loop reporter (input ligand: none) | apparent KD of K4 kissing-loop reporter [1] | apparent KD of K4 kissing-loop reporter [2]
1 | UAAAUAAUUCAAGGAUAUGUUUUCUAUUUCGAGUGAUGUUCGGUCUUAAUAAAUUUAAUAGAUUAUACAGAAGGUGAUGGAUAGU [Astrostest] | 162 nM | 164 nM | 130 nM | 188 nM | 99.8 nM
2 | UGUCAUGGAAACAUGAACGUUGAUGUUCGACGAGGACCGGUACGGCCGCCACUCGAGUAAUAGUCAGUGAUGUUGACUUGUUUAA [KL-SSTryp-A form1 sub4] | 49.4 nM | 101 nM | 69.1 nM | 90.9 nM | 55.6 nM
3 | CGUGAGUGAUGUUCACGAUGCUUCAAUCUAGAGGAUAUUCACGAUCGAAGAAGGCUGGACAAGUGCUGUCUCAUGACAGAUAAGG [FMN A SS t4] | 161 nM | 253 nM | 287 nM | 298 nM | 237 nM
4 | AAGGUUGUGCAUGGGAGUGAUGUUCCCACGCAGGAUAUCGCUCUCGCGAGAAGGGCGAGCACAACCGCUCAAGAAACUUGAGCAA [Omei KL FMN A SS C v3] | 129 nM | 320 nM | 480 nM | 402 nM | 388 nM
5 | GGAGGGAUCUCGGCCGCCACUCAUAAGAAAUGGGCCUCAGAAAUAUAGUGAUGUUAUAUAAAGAAGAGGACCGGGAGAAAGAAGG [ExTryptoB.D] | 197 nM | 128 nM | 129 nM | 203 nM | 131 nM
6 | UGUACCGAGUCAGGAUAUGGCGUCGAAAGACGAAAUGGAGUGAUGUUCCUUAUCUGCGAAAGCAGUCCAGAAGGGACUUGGUACU [FmnBS 27 #SwitchBubble #StaticStem #DoubleMagnetSystem] | 134 nM | 120 nM | 137 nM | 123 nM | 137 nM
7 | AUUCAGAUCUGAAGGAGCGCGUUAAGUCAAUGCUUCAUAGAGCAGUGAUGUUGCUCUGAAACGCAGGUAGGUCGCAGAUCUGACC [Arg B SS t17] | 295 nM | 250 nM | 325 nM | 288 nM | 287 nM
8 | GUGCGGCUAGUGAUGUUGGUUGCGUGGGAAGGAGCGCAGAAACAUGCAGGUAGGUCGCCCACAUCUCGGAUAAGAGAUUAAUUCC [Arorso] | 291 nM | 153 nM | 252 nM | 262 nM | 244 nM
9 | UAUGGAGUGAUGUUCCGUAUGACUGUCGAUACCAGCCUGUGCCUUGGCCCUUGGCAGCGAAAAGCAUCGGCUAAUGUCGCGUCAU [Onaraed] | 201 nM | 191 nM | 194 nM | 221 nM | 184 nM
10 | ACUGAGCAUGCGGCCGCCACUUCAGAACGUCGCCCGGAGGGCGACGCCUCCGCAGUGAUGUUGCGGAGGACCGGGCAUGUUCAGA [Omei KL Tryp B Exc A v4] | 90.4 nM | 78.4 nM | 99.8 nM | 77.9 nM | 85.3 nM
11 | UUAUAUAAUUAGUCUUUUUUAACAUUAAGUCAGGAUAUCGUAUAUUCGAGAAGGGACACAUGCUAGUGAUGUUAGCUAUUUCUUU [JR_ExcFMNA_Sub017] | 32.4 nM | 54.7 nM | 30.7 nM | 50.1 nM | 31.5 nM
12 | GUCCACACUGCAGGAUAUGGAGAAGUAGCGAGGGAGUUUGGAAGCACACCUCUGGCAGUGAUGUUGCCAGAAGGGCGGUGCGGCG [Inlaindi] | 109 nM | 80.2 nM | 80.6 nM | 84.1 nM | 93.9 nM
13 | CGAGUCGGUUCAGAUACCAGCCAAUUAAAGUCGAGUGAUGUUCGACAAUGAACGUCCAAAGGCCCUUGGCAGCUGAAUUGGGAAC [Same State Theophylline B GF 19] | 216 nM | 107 nM | 191 nM | 250 nM | 122 nM
14 | UGUCAUUGGUCGGCCGCCACUUCAGGUCAAAGACCAGAGUGAUGUUCUUGCACAAAGUGCUUAAGAAGGACCGGGACCGAUGACU [TrypBS 14 #SwitchBubble #K4Middle] | 256 nM | 53.5 nM | 63.3 nM | 69.5 nM | 1060 nM
15 | AAUAUACAGGGAAGGAGCGUCGUCCAGUGAUGUUGGAGUUAAAUACCAGUGAUGUUGGUUAGGCAGGUAGGUCGCCCUAAAGUAU [KL-XARG-B15] | 93.6 nM | 68.3 nM | 86.7 nM | 85.1 nM | 73.9 nM
16 | UCUAUAGUUAGAGGAUAUUGAAUUAGAGUGAUGUUCUAUAGAAGACCAGUGAUGUUGGAUAGUAUACAAGAAGGCUGAUCUAUAG [Same State FMN B GF 1] | 208 nM | 665 nM | 451 nM | 883 nM | 499 nM

Row | Sequence | apparent KD of K4 kissing-loop reporter (input ligand: FMN 200 uM) | apparent KD of K4 kissing-loop reporter (input ligand: arginine 13.2 mM) | apparent KD of K4 kissing-loop reporter (input ligand: none) | apparent KD of K4 kissing-loop reporter [1] | apparent KD of K4 kissing-loop reporter [2]
17 | UGUCAUUGGUCGGCCGCCACUUCGUGUGGAGUGAUGUUUUGUAGGACGGAUCGAAAGAUCUGUCGAAGGACCGGGACCGAUGACU [FiskerMod 19 - Jieux - Same State - Tryptophan B] | 96.8 nM | 85.8 nM | 87.6 nM | 33.5 nM | 285 nM
18 | UCGCGUCUGCGAGGAUAUCGGAUUAGAGUGAUGUUCUAUAAACGCCCAGUGAUGUUGGAUGCGAUACGAGAAGGCGCUGGGCGCA [Same State FMN B GF8] | 178 nM | 280 nM | 203 nM | 321 nM | 167 nM
19 | UAGGAGUGAUGUUCCUUUAGCAGGUAGGAAGGAGCGCCCAUUUGGGCAGGUAGGUCGCCUACUGGCCCUAAGUUAAACCUUAGGC [KL-SSArg-A12] | 160 nM | 161 nM | 146 nM | 161 nM | 118 nM
20 | CACCCUGGACAAGGAUAUAUCAUGCGCCAAGGGCAGUGAUGUUGCCACAGGCUUGGGUCCAGUUCGAUAGAAGGUGUCUGGUAUU [theeternabot_sameState_KL_FMN_B_4] | 203 nM | 174 nM | 244 nM | 159 nM | 183 nM
21 | GCCGUACGCAUGGAUACCAGCUAUUAGAGUGAUGUUCUAUGGCCCUGCCAAUGGAGCUGUAGCCCUUGGCAGCCAUGCGUACGGC | 112 nM | 95.2 nM | 109 nM | 105 nM | 104 nM
22 | AAGCAGUCUCUUGUAAUCAUCGAAGAUGAACGAGGACCGGUACGGCCGCCACUCGGAGUGAUGUUCCGAAGACUGCAAAAUAAAA [MatMod 16 - Jieux - Exclusion - Tryptophan A] | 650 nM | 494 nM | 676 nM | 873 nM | 219 nM
23 | UGUACCGAGUCAGGAUAUGGCGUCGAAAGACGAAUCUUAGUGAUGUUAGGGAUCUGCGAAAGCAGUCUAGAAGGGACUUGGUACU [FmnBS 26 U37+U68] | 396 nM | 372 nM | 439 nM | 574 nM | 462 nM
24 | UUUGUGAGUGAUGUUUGCAAUACGUUACCGAAGGAUAUUGUUGCGCCAAGAAGGUCGGAUGGAUCCAUGGGACAUGCCCUGGAGA [theeternabot_sameState_KL_FMN_A_45] | 617 nM | 384 nM | 509 nM | 450 nM | 474 nM
25 | AAAAUAAAAGGUCACCCAGUGAUGUUGGAAGGAGCGUGCGAAAGCACAGGUAGGUCGCCAACCUAAAAGUGACCAGGGAAACCCA [#SwitchBubble 7 #K4Early] | 594 nM | 253 nM | 171 nM | 183 nM | 276 nM
26 | AUCGUUGUCUGAGGAUAUCGGUUAACUGUAGUGAUGUUACAGAAAAUUCAUAUUAUAUUUUCUAUUCGAGAAGGCAGACUACGUA [JR_Nu3_ExcFMNB_Sub019] | 203 nM | 141 nM | 160 nM | 145 nM | 157 nM
27 | AACCUGACGACGAGUGAUGUUCGAUGGGAAGGAGCGCGAAGAAAUGCAGGUAGGUCGCCCUAAGAGAGUGUAACGUCAGGAUUAU [1.)] | 364 nM | 303 nM | 286 nM | 348 nM | 191 nM
28 | GGGAGUAGUGCGGCCGCCACUGAGAAAGUAGAAGAAUAUAGUGAUGUUAUAUAGGAAUAAAAGAACAGGACCGGGCAUUAGAUUU [SSTRyptB.U] | 230 nM | 214 nM | 230 nM | 203 nM | 174 nM
29 | CCGAGUAGCUCCGAUACCAGCACAAUCGUUCAAUGAUCCAUGCGCAAGUGAUGUUUGCGUUGCCCUUGGCAGCGGGCAAAAGCUU [theeternabot_sameState_KL_Theo_B_2] | 61.3 nM | 90 nM | 72.4 nM | 86.5 nM | 78.6 nM
30 | AUGCGUUGCACGGCCGCCACUGAUAUUAUGCUUCAGGAUGCUUCUGAAAGUGAUGUUUUCAGAUCCAGGACCGGGUGCCAAGAUU [theeternabot_sameState_KL_Trp_B_17] | 104 nM | 88.2 nM | 98.3 nM | 92.3 nM | 98.8 nM
31 | CUUGAAAUGACUGAUACCAGUGAAAAUCUAUGUAGUGAUGUUAUAUACUAAUUUAAUAAGCGCCCUUGGCAGCAGUAUGAAUUAU [AstrosExc-theB#18] | 657 nM | 260 nM | 532 nM | 561 nM | 445 nM
32 | UGUCAUUGGUCUGAUACCAGUUAGACCGAUAAGGUCAAAACUGGAGUGAUGUUCCCAAAUAACCCUUGGCAGCAGACCGAUGACU [TheoBS 5 #SwitchBubble #StaticStem] | 452 nM | 116 nM | 185 nM | 249 nM | 241 nM
